Measured values taken from article PMC11417369, “DNA sequence and chromatin differentiate sequence-specific transcription factor binding in the human malaria parasite Plasmodium falciparum”.

T1: HDP1 homeodomain-like (Plasmodium falciparum, UniProt Q8IKH4 2990-3078)
T1 sequence: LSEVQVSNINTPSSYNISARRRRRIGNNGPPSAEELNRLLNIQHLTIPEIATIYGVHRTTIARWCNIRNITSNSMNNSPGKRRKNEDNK

B1: GTGCAC_negctrl_site622 (dsDNA)
DNA 1: TTTTGAATATATTAAATAAATTAAAAATCTACAAAC
DNA 2: GTTTGTAGATTTTTAATTTATTTAATATATTCAAAA
B2: GTGCAC_negctrl_site87 (dsDNA)
DNA 1: ATATATATAAAATATTATATTAAAAAAAATAAAATA
DNA 2: TATTTTATTTTTTTTAATATAATATTTTATATATAT
B3: GTGCAC_negctrl_site722 (dsDNA)
DNA 1: ATAATACAAAAAAAAAAAAAAAATAAAATAATAAAA
DNA 2: TTTTATTATTTTATTTTTTTTTTTTTTTTGTATTAT
B4: GTGCAC_negctrl_site221 (dsDNA)
DNA 1: ATATGTATAAGTATGTATATTTATTTATACTTATGT
DNA 2: ACATAAGTATAAATAAATATACATACTTATACATAT
B5: GTGCAC_negctrl_site541 (dsDNA)
DNA 1: TCCCCCTTTTTTTGATTTTTATCTTAATTCTAAAAG
DNA 2: CTTTTAGAATTAAGATAAAAATCAAAAAAAGGGGGA
B6: GTGCAC_negctrl_site318 (dsDNA)
DNA 1: ATTTAAAAAAAAAAAAATAAATAACTTGAAAAACAA
DNA 2: TTGTTTTTCAAGTTATTTATTTTTTTTTTTTTAAAT
B7: GTGCAC_negctrl_site352 (dsDNA)
DNA 1: TTTTTTTTTTTTTTTTTTTTCACATGTGTGGAAAAA
DNA 2: TTTTTCCACACATGTGAAAAAAAAAAAAAAAAAAAA
B8: GTGCAC_negctrl_site143 (dsDNA)
DNA 1: TTTTTTTTTTTTTTTTTTTTTTTTTTGTTCAGGCCT
DNA 2: AGGCCTGAACAAAAAAAAAAAAAAAAAAAAAAAAAA
B9: GTGCAC_negctrl_site240 (dsDNA)
DNA 1: TTTTTTTTTTTTTTTTTTTGATTCTTATAAAAATTT
DNA 2: AAATTTTTATAAGAATCAAAAAAAAAAAAAAAAAAA
B10: GTGCAC_negctrl_site639 (dsDNA)
DNA 1: AAATAATTTATAAATAAATACATTGTTACTTTTTCT
DNA 2: AGAAAAAGTAACAATGTATTTATTTATAAATTATTT
B11: GTGCAC_negctrl_site681 (dsDNA)
DNA 1: AAAGGTAAATGTAAATAAATAAATAATAAATATATA
DNA 2: TATATATTTATTATTTATTTATTTACATTTACCTTT
B12: GTGCAC_negctrl_site302 (dsDNA)
DNA 1: TAAAAAAATAAAAAAAAAAAATTATAAAATTATATA
DNA 2: TATATAATTTTATAATTTTTTTTTTTTATTTTTTTA
B13: GTGCAC_negctrl_site697 (dsDNA)
DNA 1: AAAACTTTTAAAATTTTGTATTCATTCCTTCAACAA
DNA 2: TTGTTGAAGGAATGAATACAAAATTTTAAAAGTTTT
B14: GTGCAC_negctrl_site52 (dsDNA)
DNA 1: TTTTTACTATAATTAAAATTAACAAAAGAAAATGAT
DNA 2: ATCATTTTCTTTTGTTAATTTTAATTATAGTAAAAA
B15: GTGCAC_negctrl_site190 (dsDNA)
DNA 1: TAGTTACTTCTTATATAAAATATGTATATAAAAATA
DNA 2: TATTTTTATATACATATTTTATATAAGAAGTAACTA
B16: GTGCAC_negctrl_site77 (dsDNA)
DNA 1: TATTAAAATATGTCAGTTCTTAAAAAGTTGATGAGT
DNA 2: ACTCATCAACTTTTTAAGAACTGACATATTTTAATA
B17: GTGCAC_negctrl_site10 (dsDNA)
DNA 1: TGCCATATATATATTAAATACATAATAATGAGCCTA
DNA 2: TAGGCTCATTATTATGTATTTAATATATATATGGCA
B18: GTGCAC_negctrl_site564 (dsDNA)
DNA 1: ATAATGAACAATATTATATATAAAATATAATTTATA
DNA 2: TATAAATTATATTTTATATATAATATTGTTCATTAT
B19: GTGCAC_negctrl_site405 (dsDNA)
DNA 1: TTTTTTATATTGATATTTATTAAATATGAAATGTTA
DNA 2: TAACATTTCATATTTAATAAATATCAATATAAAAAA
B20: GTGCAC_negctrl_site151 (dsDNA)
DNA 1: TTTGTTCTATGGAGTTTAAAATGTAATATATATTAA
DNA 2: TTAATATATATTACATTTTAAACTCCATAGAACAAA
B21: GTGCAC_negctrl_site459 (dsDNA)
DNA 1: TTTTTTAGATTACATAAATATAAATATAAATATATA
DNA 2: TATATATTTATATTTATATTTATGTAATCTAAAAAA
B22: GTGCAC_negctrl_site596 (dsDNA)
DNA 1: TTTTTTATTTTATTTTATTTTTATTTTTTTTTTTTT
DNA 2: AAAAAAAAAAAAATAAAAATAAAATAAAATAAAAAA
B23: GTGCAC_negctrl_site303 (dsDNA)
DNA 1: TCTTTTTTTTTTTTTTTTTCTTCTTCTCAATATAAA
DNA 2: TTTATATTGAGAAGAAGAAAAAAAAAAAAAAAAAGA
B24: GTGCAC_negctrl_site607 (dsDNA)
DNA 1: TTTTCATTTATGTATATATTTATTTTGATTTAATGT
DNA 2: ACATTAAATCAAAATAAATATATACATAAATGAAAA
B25: GTGCAC_negctrl_site549 (dsDNA)
DNA 1: TTTTTTATAGTACATTACCAAAAAAAAAAAAAAAAA
DNA 2: TTTTTTTTTTTTTTTTTGGTAATGTACTATAAAAAA
B26: GTGCAC_negctrl_site20 (dsDNA)
DNA 1: TAGTTCCTCAAAAATTTCCTTTGTCATTTTATTCAC
DNA 2: GTGAATAAAATGACAAAGGAAATTTTTGAGGAACTA
B27: GTGCAC_negctrl_site347 (dsDNA)
DNA 1: TTTTTTTTTATATAAAAAAAAATTTTTATTATTTTA
DNA 2: TAAAATAATAAAAATTTTTTTTTATATAAAAAAAAA
B28: GTGCAC_negctrl_site289 (dsDNA)
DNA 1: TTTTTAGAAAAGGTTATAAAAAATTAATTGAAAAAA
DNA 2: TTTTTTCAATTAATTTTTTATAACCTTTTCTAAAAA
B29: GTGCAC_negctrl_site183 (dsDNA)
DNA 1: TGTATAGGTACAATAATTATAGAGTAATTGACATTA
DNA 2: TAATGTCAATTACTCTATAATTATTGTACCTATACA
B30: GTGCAC_negctrl_site147 (dsDNA)
DNA 1: AGTAAAAAAAAAAAAAAAAAAAAAAAAAAAAAAAAA
DNA 2: TTTTTTTTTTTTTTTTTTTTTTTTTTTTTTTTTACT
B31: GTGCAC_negctrl_site74 (dsDNA)
DNA 1: AATTGGAAGAAAAAAAAGGAAGGAAAGTTATTACAT
DNA 2: ATGTAATAACTTTCCTTCCTTTTTTTTCTTCCAATT
B32: GTGCAC_negctrl_site550 (dsDNA)
DNA 1: AAAAAAAATAAAGAGAAAAAAAAAAGAAAATTATAT
DNA 2: ATATAATTTTCTTTTTTTTTTCTCTTTATTTTTTTT
B33: GTGCAC_negctrl_site480 (dsDNA)
DNA 1: TTATAATAAAAGGCTTTACAATTATTAAACAAATAA
DNA 2: TTATTTGTTTAATAATTGTAAAGCCTTTTATTATAA
B34: GTGCAC_negctrl_site144 (dsDNA)
DNA 1: TTTTTTCTTTTTTTTTTTAATTATAAACATGATATT
DNA 2: AATATCATGTTTATAATTAAAAAAAAAAAGAAAAAA
B35: GTGCAC_negctrl_site236 (dsDNA)
DNA 1: TGTTAAAAGGTTAAATTAAAATAACCTCCGGAAATT
DNA 2: AATTTCCGGAGGTTATTTTAATTTAACCTTTTAACA
B36: GTGCAC_negctrl_site162 (dsDNA)
DNA 1: TTTCTTATAGATTTTAATCCTCTATCAAAAAAAGAA
DNA 2: TTCTTTTTTTGATAGAGGATTAAAATCTATAAGAAA
B37: GTGCAC_negctrl_site152 (dsDNA)
DNA 1: ATTATTTAATTTTATTAAAAAAAAACAAATTAACAG
DNA 2: CTGTTAATTTGTTTTTTTTTAATAAAATTAAATAAT
B38: GTGCAC_negctrl_site73 (dsDNA)
DNA 1: AGCACACAAAAAAAAAAAAAAAAAAAAAAAGGAATG
DNA 2: CATTCCTTTTTTTTTTTTTTTTTTTTTTTGTGTGCT
B39: GTGCAC_negctrl_site230 (dsDNA)
DNA 1: TGTTGTTATAAAAAAAAAAAAAAAAAAAAAAAAAAA
DNA 2: TTTTTTTTTTTTTTTTTTTTTTTTTTTATAACAACA
B40: GTGCAC_negctrl_site542 (dsDNA)
DNA 1: AAAATCCAGTTTTCAAAATTGAACAAAAAAAAAATA
DNA 2: TATTTTTTTTTTGTTCAATTTTGAAAACTGGATTTT
B41: GTGCAC_negctrl_site630 (dsDNA)
DNA 1: TTCTTTTCTTTTTTCTTTTTTTTTTTCTTTTCTTTT
DNA 2: AAAAGAAAAGAAAAAAAAAAAGAAAAAAGAAAAGAA
B42: GTGCAC_negctrl_site17 (dsDNA)
DNA 1: TTTTTTTTTTTTTTTTTTTTCTTCATTTAATTTATA
DNA 2: TATAAATTAAATGAAGAAAAAAAAAAAAAAAAAAAA
B43: GTGCAC_negctrl_site710 (dsDNA)
DNA 1: AATATATTTTAGAGTTTTATATATTTTATGCATATA
DNA 2: TATATGCATAAAATATATAAAACTCTAAAATATATT
B44: GTGCAC_negctrl_site474 (dsDNA)
DNA 1: ATAAAATATTAATTTTAAATTAATCAATATATATAA
DNA 2: TTATATATATTGATTAATTTAAAATTAATATTTTAT

These binders were tested against T1, HDP1 homeodomain-like (assay: gcPBM; about 25 ug protein; PBS, 1% milk, 0.2 mg/ml BSA, salmon testes DNA, 0.03% Triton X-100). Details: tags: N-terminal GST (pGEX-4T-1), kept; chain copies: 2; label: surface-attached array probe.

In order of falling binding signal:
1. B5  6.28 ln median PBM intensity, better of two orientations
2. B11  6.27 ln median PBM intensity, better of two orientations
3. B22  6.26 ln median PBM intensity, better of two orientations
4. B25  6.26 ln median PBM intensity, better of two orientations
5. B39  6.26 ln median PBM intensity, better of two orientations
6. B42  6.26 ln median PBM intensity, better of two orientations
7. B20  6.25 ln median PBM intensity, better of two orientations
8. B26  6.25 ln median PBM intensity, better of two orientations
9. B43  6.25 ln median PBM intensity, better of two orientations
10. B1  6.24 ln median PBM intensity, better of two orientations
11. B7  6.23 ln median PBM intensity, better of two orientations
12. B17  6.22 ln median PBM intensity, better of two orientations
13. B32  6.22 ln median PBM intensity, better of two orientations
14. B29  6.21 ln median PBM intensity, better of two orientations
15. B35  6.21 ln median PBM intensity, better of two orientations
16. B38  6.21 ln median PBM intensity, better of two orientations
17. B16  6.19 ln median PBM intensity, better of two orientations
18. B40  6.19 ln median PBM intensity, better of two orientations
19. B15  6.17 ln median PBM intensity, better of two orientations
20. B18  6.17 ln median PBM intensity, better of two orientations
21. B4  6.16 ln median PBM intensity, better of two orientations
22. B44  6.16 ln median PBM intensity, better of two orientations
23. B23  6.15 ln median PBM intensity, better of two orientations
24. B28  6.15 ln median PBM intensity, better of two orientations
25. B37  6.14 ln median PBM intensity, better of two orientations
26. B10  6.13 ln median PBM intensity, better of two orientations
27. B14  6.13 ln median PBM intensity, better of two orientations
28. B19  6.13 ln median PBM intensity, better of two orientations
29. B30  6.13 ln median PBM intensity, better of two orientations
30. B21  6.12 ln median PBM intensity, better of two orientations
31. B27  6.12 ln median PBM intensity, better of two orientations
32. B36  6.12 ln median PBM intensity, better of two orientations
33. B24  6.11 ln median PBM intensity, better of two orientations
34. B2  6.1 ln median PBM intensity, better of two orientations
35. B6  6.08 ln median PBM intensity, better of two orientations
36. B41  6.08 ln median PBM intensity, better of two orientations
37. B13  6.07 ln median PBM intensity, better of two orientations
38. B34  6.07 ln median PBM intensity, better of two orientations
39. B31  6.06 ln median PBM intensity, better of two orientations
40. B3  6.04 ln median PBM intensity, better of two orientations
41. B33  6.03 ln median PBM intensity, better of two orientations
42. B9  6.02 ln median PBM intensity, better of two orientations
43. B8  5.99 ln median PBM intensity, better of two orientations
44. B12  5.98 ln median PBM intensity, better of two orientations
